Assay results from paper PMC5300155, “Biochemical and biophysical investigations of the interaction between human glucokinase and pro-apoptotic BAD” (PLoS ONE, 2017).
Entries after “also recorded” stand apart in the source; their conditions may differ.

T1: human pancreatic GCK (Homo sapiens, UniProt P35557)
T1 construct: hexahistidine (N); made in house; host or cells: glucokinase auxotroph BM5340(DE3)
T1 sequence (P35557 1-465): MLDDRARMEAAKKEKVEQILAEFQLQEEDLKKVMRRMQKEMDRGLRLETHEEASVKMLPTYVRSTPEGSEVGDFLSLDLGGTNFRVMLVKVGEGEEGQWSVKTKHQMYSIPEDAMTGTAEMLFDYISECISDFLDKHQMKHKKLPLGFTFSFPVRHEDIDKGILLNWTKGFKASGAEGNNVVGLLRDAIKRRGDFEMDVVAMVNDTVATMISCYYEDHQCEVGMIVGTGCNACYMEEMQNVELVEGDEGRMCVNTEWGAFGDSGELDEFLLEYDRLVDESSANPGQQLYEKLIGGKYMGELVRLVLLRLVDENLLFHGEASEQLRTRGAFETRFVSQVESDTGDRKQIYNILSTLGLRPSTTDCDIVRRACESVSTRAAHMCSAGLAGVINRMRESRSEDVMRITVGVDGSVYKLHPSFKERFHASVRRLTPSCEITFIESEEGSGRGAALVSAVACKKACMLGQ


Legend:
human pancreatic GCK [1] = molecular target: T1, human pancreatic GCK; test: Isothermal titration calorimetry with GCK; format: binding; details: peptide up to 50 μM into GCK (10 μM), presence and absence of 0.2 M glucose, potassium phosphate 25 mM, DMSO 5%, 25°C
Experimental: Recombinant human pancreatic GCK containing an N-terminal hexahistidine tag was produced in the glucokinase auxotroph BM5340(DE3) and purified using a previously described procedure. TEV protease was expressed as a GST-fusion protein from a pGEX plasmid encoding the S219V variant, provided by David Waugh (Addgene plasmid 8827). Expression was induced with IPTG (1 mM) for 4 h at 30°C. Cell pellets were resuspended in Tris buffer (50 mM, pH 8.0) containing NaCl (100 mM), glycerol (10% v/v), benzamidine (1 mM) and dithiothreitol (10 mM) and lysed via French Press. Polyethyleneimine (0.1%) was added to the lysate and protein was purified on a glutathione-affinity column (GSTrap, GE Sciences). TEV protease was flash frozen and stored at -80°C for up to 1 month.
Isothermal titration calorimetry was performed at 25°C using a MicroCal VP-ITC (GE Healthcare) instrument. Bcl-xL (100 μM) in BAD buffer (0.1 M Tris, 0.1 M KCl, 0.5 M arginine, 2.5 mM CHAPS, 5 mM TCEP, 10% glycerol, pH 8.5) was titrated into the calorimeter cell containing size-exclusion chromatography purified BAD-GST (10–18 μM) in 4 μL injections. A 21-residue phosphorylated peptide containing the BH3 domain of BAD was synthesized and purified to >95% by Peptide2.0 (pBH3 = NLWAAQRYGRELRRM(p)SDKFVD). The peptide (300 μM) in potassium phosphate buffer (25 mM) containing KCl (25 mM), TCEP (4 mM) and DMSO (5%) with and without glucose (200 mM) was titrated into the cell containing GCK (10 μM) previously dialyzed against the same buffer. GCK (100 μM) in BAD buffer was titrated into the cell containing S118D BAD-GST (10–15 μM) in 13 μL injections. Data were analyzed using Origin software.

Bcl-xL [2] = molecular target: T2, Bcl-xL (Homo sapiens, UniProt Q07817, DEL45-84); test: Isothermal titration calorimetry of BAD-GST with Bcl-xL; format: binding; details: ITC, 25°C; Bcl-xL (100 μM) titrated into BAD-GST (10–18 μM), 4 μL injections, BAD buffer pH 8.5; average of two independent experiments
T2 construct: made in house
T2 sequence (Q07817 with tags, fused parts or gaps DEL45-84): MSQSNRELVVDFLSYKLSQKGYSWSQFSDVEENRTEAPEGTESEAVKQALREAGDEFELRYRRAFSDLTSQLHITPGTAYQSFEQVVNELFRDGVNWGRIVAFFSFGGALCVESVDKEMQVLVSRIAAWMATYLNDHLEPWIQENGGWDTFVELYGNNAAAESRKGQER
Experimental: Exon 1 of human bcl-xl lacking the C-terminal residues 189–233 was obtained from Stanley Korsmeyer (Addgene plasmid 8755) and site-directed mutagenesis was performed to create the Δ45–84, Δ210–233 variant. Bcl-xL was expressed and purified using a modified procedure described previously. Briefly, Bcl-xL was purified by nickel affinity chromatography and dialyzed against potassium phosphate buffer (20 mM, pH 7.4) containing NaCl (50 mM), EDTA (1 mM), and DTT (10 mM). Protein was applied to a Superdex 200 10/30 HR size-exclusion column, at a flow rate of 0.02 mL/min, to remove aggregate and oligomers prior to binding assays.
Isothermal titration calorimetry was performed at 25°C using a MicroCal VP-ITC (GE Healthcare) instrument. Bcl-xL (100 μM) in BAD buffer (0.1 M Tris, 0.1 M KCl, 0.5 M arginine, 2.5 mM CHAPS, 5 mM TCEP, 10% glycerol, pH 8.5) was titrated into the calorimeter cell containing size-exclusion chromatography purified BAD-GST (10–18 μM) in 4 μL injections. A 21-residue phosphorylated peptide containing the BH3 domain of BAD was synthesized and purified to >95% by Peptide2.0 (pBH3 = NLWAAQRYGRELRRM(p)SDKFVD). […] Data were analyzed using Origin software.

human pancreatic GCK [3] = molecular target: T1, human pancreatic GCK; test: Size-exclusion chromatography of mixtures with GCK; format: binding; details: mixtures across a range of protein concentrations; BAD buffer pH 8.5, 4°C
Experimental: (§1) Size-exclusion chromatography was performed on a HiPrep 16/60 Sephacryl S-200 HR column (GE Healthcare) connected to a Bio-Rad DuoFlow FPLC. The column was calibrated with thyroglobulin (669 kDa), γ-globulin (158 kDa), ovalbumin (43 kDa), myoglobin (17 kDa), and vitamin B12 (1.35 kDa). All proteins were analyzed in BAD buffer (0.1 M Tris, 0.1 M KCl, 0.5 M arginine, 2.5 mM CHAPS, 5 mM TCEP, 10% glycerol, pH 8.5) at a flow rate of 0.02 mL/min at 4°C. Protein samples were concentrated to 800 μL and filtered through 0.2 μm filters before injection onto the size-exclusion column. For complex formation, equimolar mixtures of proteins were added to BAD buffer in a final volume of 800 μL and incubated on ice 30 min prior to injection onto the column.

human pancreatic GCK [4] = molecular target: T1, human pancreatic GCK; test: Analytical ultracentrifugation sedimentation velocity of equimolar mixtures with GCK; format: binding; details: equimolar mixture, BAD buffer pH 8.5, 20°C, 50,000 x g
Experimental: Sedimentation velocity experiments were conducted with an Optima XLI Ultracentrifuge (Beckman Coulter) using a four-hole rotor with three 420 μL samples in standard double-sector Epon centerpieces equipped with sapphire windows. Absorbance and interference data were collected simultaneously. Size-exclusion purified proteins were concentrated to OD280 nm = 0.3–1.0 prior to centrifugation. For complex formation, proteins were mixed in a 1:1 molar ratio in BAD buffer (0.1 M Tris, 0.1 M KCl, 0.5 M arginine, 2.5 mM CHAPS, 5 mM TCEP, 10% glycerol, pH 8.5) and incubated on ice 30 min prior to the start of the experiment. Experiments were carried out at 20°C and 50,000 x g. Data were analyzed with Ultrascan III software using a minimum of 70 scans per sample for analysis. Van Holde-Weischet analysis was performed to obtain S20,W values.

Bcl-xL [5] = molecular target: T2, Bcl-xL; test: Size-exclusion chromatography of 1:1 mixture with Bcl-xL; format: binding; details: 1:1 mixture of purified Bcl-xL and BAD-GST; BAD buffer pH 8.5, 4°C
Experimental: as §1

[6] = produced in Escherichia coli; ref [30]; cited from earlier work
Excerpt: To facilitate biochemical characterization of the BAD:GCK complex, we sought a method to produce functional, recombinant human BAD. Several groups have used microbial hosts to produce BAD, however, functional characterization of the resulting protein was limited.

Molecule	Heat change on addition to GCK (ITC) (human pancreatic GCK [1])	Heat change on addition to GCK (ITC) (human pancreatic GCK [1]; listed as phosphorylated BH3 peptide)	Kd (Bcl-xL [2])	Complex with GCK by size-exclusion chromatography (human pancreatic GCK [3])	Complex with GCK by analytical ultracentrifugation (human pancreatic GCK [4])	Complex formation with Bcl-xL by size-exclusion chromatography (Bcl-xL [5])	Proteolysis of recombinant BAD [6]
NLWAAQRYGRELRRM(p)SDKFVD [pBH3, 21-residue phosphorylated peptide containing the BH3 domain of BAD]	No detectable heat change	do not indicate an interaction					
BAD-GST: recombinant human BAD with N-terminal hexahistidine tag and C-terminal GST fusion, TEV consensus sequence between (protein, left off: His6, N-terminal, state not stated | GST, C-terminal, kept) MFQIPEFEPSEQEDSSSAERGLGPSPAGDGPSGSGKHHRQAPGLLWDASHQQEQPTSSSHHGGAGAVEIRSRHSSYPAGTEDDEGMGEEPSPFRGRSRSAPPNLWAAQRYGRELRRMSDEFVDSFKKGLPRPKSAGTATQMRQSSSWTRVFQSWWDRNLGRGSSAPSQ			7 nM	No evidence of a higher molecular weight complex is observed; also recorded: provides no evidence of complex formation	does not reveal a higher molecular weight component indicative of complex formation	three peaks corresponding to monomeric Bcl-xL, the BAD-GST dimer, and the BAD-GST:Bcl-xL complex; also recorded: confirms formation of a higher molecular weight complex between BAD-GST and Bcl-xL	highly susceptible to proteolysis
